Data: patent US20200277397A1 (Genmab, published 2020)
Like-named read-outs stand apart in the source and are kept apart here. Blank lines part the entries; values can stand above or below the binder they belong to.

Experiments:
[1] = target: T1, full length human 5T4 (human, UniProt Q13641 32-420); test: flow cytometry, HeLa cells, PE anti-human IgG F(ab')2, MFI PE
T1 construct: Uniprot Q13641; Used here also for endogenous 5T4 on the human tumour cell lines
T1 sequence: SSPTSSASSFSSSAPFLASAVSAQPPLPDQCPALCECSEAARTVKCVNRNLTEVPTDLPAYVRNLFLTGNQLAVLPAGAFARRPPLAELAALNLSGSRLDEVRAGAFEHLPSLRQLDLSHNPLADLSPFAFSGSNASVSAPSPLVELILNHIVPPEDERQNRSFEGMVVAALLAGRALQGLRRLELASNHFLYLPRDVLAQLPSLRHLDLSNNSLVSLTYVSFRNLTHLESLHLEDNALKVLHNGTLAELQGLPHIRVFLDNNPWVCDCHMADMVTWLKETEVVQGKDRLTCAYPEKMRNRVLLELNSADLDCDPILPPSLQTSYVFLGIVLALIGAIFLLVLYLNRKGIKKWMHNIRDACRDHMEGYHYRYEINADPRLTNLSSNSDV

[2] = target: T2, full length cynomolgus monkey 5T4 (cynomolgus monkey, UniProt Q4R8Y9 35-420); test: flow cytometry, HEK-293 cells transfected with cynomolgus monkey 5T4 (right panel), PE anti-human IgG F(ab')2, MFI PE
T2 construct: Uniprot Q4R8Y9; also called cynomolgus monkey 5T4 on HEK-293 cells
T2 sequence: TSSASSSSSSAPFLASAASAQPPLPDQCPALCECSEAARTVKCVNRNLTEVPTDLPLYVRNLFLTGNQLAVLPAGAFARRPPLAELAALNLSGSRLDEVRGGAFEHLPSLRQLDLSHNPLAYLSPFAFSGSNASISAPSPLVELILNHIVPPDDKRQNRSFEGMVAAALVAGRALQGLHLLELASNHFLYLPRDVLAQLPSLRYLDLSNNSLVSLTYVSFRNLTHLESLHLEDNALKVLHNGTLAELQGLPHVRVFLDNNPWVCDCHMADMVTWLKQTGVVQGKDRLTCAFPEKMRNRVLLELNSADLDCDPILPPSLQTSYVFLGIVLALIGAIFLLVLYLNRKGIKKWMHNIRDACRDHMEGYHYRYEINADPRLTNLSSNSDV

[3] = target: T2, full length cynomolgus monkey 5T4; test: as above; remark: listed apart in the source
[4] = target: T1, full length human 5T4; test: flow cytometry, HEK-293 cells transfected with human 5T4 (left panel), PE anti-human IgG F(ab')2, MFI PE
[5] = target: T2, full length cynomolgus monkey 5T4; test: flow cytometry, HEK-293 cells transfected with cynomolgus monkey 5T4 (right panel), PE anti-human IgG F(ab')2, MFI PE; remark: listed apart in the source
[6] = target: T1, full length human 5T4; test: flow cytometry, HeLa cells, PE anti-human IgG F(ab')2, MFI PE; remark: listed apart in the source
[7] = target: T2, full length cynomolgus monkey 5T4; test: flow cytometry, HEK-293 cells transfected with cynomolgus monkey 5T4 (right panel), PE anti-human IgG F(ab')2, MFI PE; remark: listed apart in the source
[8] = target: T1, full length human 5T4; test: flow cytometry, HEK-293 cells transfected with human 5T4 (left panel), PE anti-human IgG F(ab')2, MFI PE; remark: listed apart in the source
[9] = target: T2, full length cynomolgus monkey 5T4; test: flow cytometry, HEK-293 cells transfected with cynomolgus monkey 5T4 (right panel), PE anti-human IgG F(ab')2, MFI PE; remark: listed apart in the source

binding result [1]: binds
binding result [2]: binds
B1: bsIgG1-huCD3-H101G-FEALx5T4-A3-FEAR (bispecific antibody)
heavy 1: not shown
VL 1: not shown
heavy 2: EVQLVESGGGLVQPKGSLKLSCAASGFTFNTYAMNWVRQAPGKGLEWVARIRSKSNNYATYYADSVKDRFTISRDDSQSMLYLQMNNLKTEDTAMYYCVRQWDYDVRAMNYWGQGTSVTVSSASTKGPSVFPLAPSSKSTSGGTAALGCLVKDYFPEPVTVSWNSGALTSGVHTFPAVLQSSGLYSLSSVVTVPSSSLGTQTYICNVNHKPSNTKVDKRVEPKSCDKTHTCPPCPAPEFEGGPSVFLFPPKPKDTLMISRTPEVTCVVVAVSHEDPEVKFNWYVDGVEVHNAKTKPREEQYNSTYRVVSVLTVLHQDWLNGKEYKCKVSNKALPAPIEKTISKAKGQPREPQVYTLPPSREEMTKNQVSLTCLVKGFYPSDIAVEWESNGQPENNYKTTPPVLDSDGSFFLYSRLTVDKSRWQQGNVFSCSVMHEALHNHYTQKSLSLSPGK
VL 2: DIVMTQSHIFMSTSVGDRVSITCKASQDVDTAVAWYQQKPGQSPKLLIYWASTRLTGVPDRFTGSGSGTDFTLTISNVQSEDLADYFCQQYSSYPYTFGGGTKLEIK

EC50 (read off the curve) [3]: ~0.4 µg/mL
EC50 (read off the curve) [4]: ~0.5 µg/mL
B2: bsIgG1-huCD3-H101G-FEALx5T4-085-FEAR (bispecific antibody)
heavy 1: not shown
VL: not shown
heavy 2: EVQLLESGGGLVQPGGSLRLSCAASGFTFSSYAMSWVRQAPGKGLEWVSAISGSGGSTYNADSVKGRFTIFRDNSKNTLYLHMNSLRAEDTAVYYCARDPGYNNVEYLDHWGQGTLVTVSSASTKGPSVFPLAPSSKSTSGGTAALGCLVKDYFPEPVTVSWNSGALTSGVHTFPAVLQSSGLYSLSSVVTVPSSSLGTQTYICNVNHKPSNTKVDKRVEPKSCDKTHTCPPCPAPEFEGGPSVFLFPPKPKDTLMISRTPEVTCVVVAVSHEDPEVKFNWYVDGVEVHNAKTKPREEQYNSTYRVVSVLTVLHQDWLNGKEYKCKVSNKALPAPIEKTISKAKGQPREPQVYTLPPSREEMTKNQVSLTCLVKGFYPSDIAVEWESNGQPENNYKTTPPVLDSDGSFFLYSRLTVDKSRWQQGNVFSCSVMHEALHNHYTQKSLSLSPGK
light: not shown

binding result [5]: binds
binding result [6]: binds
B3: bsIgG1-huCD3-H101G-FEALx5T4-A1-FEAR (bispecific antibody)
heavy 1: not shown
VL 1: not shown
heavy 2: QIQLVQSGPELKKPGETVKISCKASGYTFTNFGMNWVKQGPGEGLKWMGWINTNTGEPRYAEEFKGRFAFSLETTASTAYLQINNLKNEDTATYFCARDWDGAYFFDYWGQGTTLTVSSASTKGPSVFPLAPSSKSTSGGTAALGCLVKDYFPEPVTVSWNSGALTSGVHTFPAVLQSSGLYSLSSVVTVPSSSLGTQTYICNVNHKPSNTKVDKRVEPKSCDKTHTCPPCPAPEFEGGPSVFLFPPKPKDTLMISRTPEVTCVVVAVSHEDPEVKFNWYVDGVEVHNAKTKPREEQYNSTYRVVSVLTVLHQDWLNGKEYKCKVSNKALPAPIEKTISKAKGQPREPQVYTLPPSREEMTKNQVSLTCLVKGFYPSDIAVEWESNGQPENNYKTTPPVLDSDGSFFLYSRLTVDKSRWQQGNVFSCSVMHEALHNHYTQKSLSLSPGK
VL 2: SIVMTQTPKFLLVSAGDRVTITCKASQSVSNDVAWYQQKPGQSPKLLINFATNRYTGVPNRFTGSGYGTDFTFTISTVQAEDLALYFCQQDYSSPWTFGGGTKLEIK

EC50 (read off the curve) [7]: ~0.1 µg/mL
B4: bsIgG1-huCD3-H101G-FEALx5T4-127-FEAR (bispecific antibody)
heavy 1: not shown
VL: not shown
heavy 2: EVQLLESRGGLVQPGGSLRLSCAASGFTFSSYAMSWVRQAPGKGLEWVSTISGSGGSTYYADSVKGRFTISRDNSKKTLYLQMNSLRAEDTAVYYCAKDWGSGSYPAEYFQHWGQGTLVTVSSASTKGPSVFPLAPSSKSTSGGTAALGCLVKDYFPEPVTVSWNSGALTSGVHTFPAVLQSSGLYSLSSVVTVPSSSLGTQTYICNVNHKPSNTKVDKRVEPKSCDKTHTCPPCPAPEFEGGPSVFLFPPKPKDTLMISRTPEVTCVVVAVSHEDPEVKFNWYVDGVEVHNAKTKPREEQYNSTYRVVSVLTVLHQDWLNGKEYKCKVSNKALPAPIEKTISKAKGQPREPQVYTLPPSREEMTKNQVSLTCLVKGFYPSDIAVEWESNGQPENNYKTTPPVLDSDGSFFLYSRLTVDKSRWQQGNVFSCSVMHEALHNHYTQKSLSLSPGK
light: not shown

binding result [8]: binds
EC50 (read off the curve) [9]: ~0.4 µg/mL
B5: bsIgG1-huCD3-H101G-FEALx5T4-076-FEAR (bispecific antibody)
heavy 1: not shown
VL: not shown
heavy 2: QVQLVQSGAEVKKPGASVKVSCKASGYTFTSYGISWVRQAPGQGLEWMGWISAYNGNTNYAQKLQGRVTMTTDTSTRTAYMELRSLRSDDTAVYYCARDPGYFDWLYGDYWGQGTLVTVSSASTKGPSVFPLAPSSKSTSGGTAALGCLVKDYFPEPVTVSWNSGALTSGVHTFPAVLQSSGLYSLSSVVTVPSSSLGTQTYICNVNHKPSNTKVDKRVEPKSCDKTHTCPPCPAPEFEGGPSVFLFPPKPKDTLMISRTPEVTCVVVAVSHEDPEVKFNWYVDGVEVHNAKTKPREEQYNSTYRVVSVLTVLHQDWLNGKEYKCKVSNKALPAPIEKTISKAKGQPREPQVYTLPPSREEMTKNQVSLTCLVKGFYPSDIAVEWESNGQPENNYKTTPPVLDSDGSFFLYSRLTVDKSRWQQGNVFSCSVMHEALHNHYTQKSLSLSPGK
light: not shown
